Laboratory results reported in US10398755B2, “Clusterin pharmaceuticals and treatment methods using the same” (UNIVERSITY OF SOUTHERN CALIFORNIA, priority 2009, dated 2019).

Biological target: T1, MMP-2 (Mus musculus, UniProt P33434)
T1 construct: purchased R&D Systems
Test: MMP inhibition assay (FRET peptide substrate), APMA-activated pro-MMP-2
Assay type: biochemical
Description: RFU, relative fluorescence unit, was obtained by considering the read out in PBS as 100%. Each reaction was performed in triplicate. Standard errors were depicted as a bar in each graph. Differences between values of PBS and CLU or SB-3CT reactions were statistically significant by Student t-test: *P=0.0004, **P=0.0001, +P=0.0003, and ++P=0.01. Gelatin zymography was performed with the samples pooled from each reaction set. Pro-MMPs, processed MMPs (MMP-9 or MMP-2), and C-terminal truncated, processed MMP-9 (MMP-9-ΔC) were indicated by arrows. (B) Dose-dependent inhibition of MMP-9 by CLU or SB-3CT was performed in the same condition. MMPs were mixed with CLD in TSCB buffer, 50 mM Tris-HCI, pH, 7.5, 150 mM NaCl, 5 mM CaCl2, 0.002% Brij35 (or otherwise indicated concentration) 30 min prior to substrate addition, and incubated for 3 h at RT in the presence or absence of 0.02 mM p-aminophenylmercuric acetate (APMA). MMP activity was measured using a 5-FAM/QXL520 fluorescence resonance energy transfer (FRET) peptide as a substrate (EXlEm=490 nm/520 nm) (AnaSpec, Fremont, Calif.), according to the manufacturer's protocol. Relative fluorescence unit (RFU) was obtained by subtracting the values of APMA- or enzyme-omitted reactions from those of test samples, and then considering the fluorescence unit of a PBS (vehicle) sample as 100%. Enzyme reactions were performed in black 96-well plate, containing combinations of 10 ng, 5 ng, 5 ng, 10 ng, 2.5 μg, 2.5 μg of MMP-2, MMP-7, catalytic domain of MMP-9, MMP-9, CCLU, and/or BSA, respectively, in 50 μl reaction volume. As MMP substrates (0.4 μM), 520 MMP FRET substrate […] (SEQ ID NO: 9), was used for MMP-2 and MMP-9, and 520 MMP FRET substrate XIV, […] […] Fluorescence was monitored using a Victor^3TM V multilabel counter (PerkinElmer). […] To determine whether MMP-9/CLU interaction affects the cleavage process of the propeptide of MMP-9 and/or interferes with enzymatic activity of the processed active enzyme, we performed an in vitro MMP-9 inhibition assay, by adopting FRET assay using a fluorescence-quenched peptide substrate (FIG. 3A). […] We incubated pro-MMP-9 with PBS, CLU, SB-3CT, or BSA, and a fluorescence peptide substrate in the presence or absence of APMA. […] We monitored the change in fluorescence value during the incubation of the reactions up to 3 h, which reflects the enzymatic activity of APMA-activated MMPs. […] At 3 h post incubation, the activity difference was read and reaction products were resolved by gelatin zymography. […] When the processed enzyme products were resolved on the gel, three bands were detected in the APMA-treated samples, pro-MMP-9, propeptide-cleaved MMP-9 (MMP-9), and MMP-9 with both propeptide and C-terminal region cleaved (MMP-9-ΔC), whereas only pro-MMP-9 was detected in APMA-omitted samples. […]

T1 sequence (P33434 110-662): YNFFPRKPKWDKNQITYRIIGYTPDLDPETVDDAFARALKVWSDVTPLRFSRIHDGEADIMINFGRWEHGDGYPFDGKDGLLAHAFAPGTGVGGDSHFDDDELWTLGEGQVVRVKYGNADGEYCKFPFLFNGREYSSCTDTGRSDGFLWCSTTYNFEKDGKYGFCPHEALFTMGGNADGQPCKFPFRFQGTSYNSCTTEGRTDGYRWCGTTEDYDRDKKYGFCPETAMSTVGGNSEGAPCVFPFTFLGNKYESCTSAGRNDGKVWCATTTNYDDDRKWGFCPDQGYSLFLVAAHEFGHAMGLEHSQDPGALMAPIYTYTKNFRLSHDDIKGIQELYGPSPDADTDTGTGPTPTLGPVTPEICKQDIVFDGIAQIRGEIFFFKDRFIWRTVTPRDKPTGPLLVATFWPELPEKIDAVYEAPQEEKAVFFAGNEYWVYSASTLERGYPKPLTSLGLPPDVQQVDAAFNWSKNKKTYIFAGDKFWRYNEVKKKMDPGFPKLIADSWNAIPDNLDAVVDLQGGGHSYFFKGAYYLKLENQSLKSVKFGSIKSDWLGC

B1: CLU: secreted disulfide-linked heterodimeric glycoprotein (70-80 KD); assays used recombinant mouse CLU with C-terminal (His)6 (protein, UniProt Q06890 22-448, looked up)
Clusterin: EQEVSDNELQELSTQGSRYINKEIQNAVQGVKHIKTLIEKTNAERKSLLNSLEEAKKKKEDALEDTRDSEMKLKAFPEVCNETMMALWEECKPCLKHTCMKFYARVCRSGSGLVGQQLEEFLNQSSPFYFWMNGDRIDSLLESDRQQSQVLDAMQDSFARASGIIDTLFQDRFFARELHDPHYFSPIGFPHKRPHFLYPKSRLVRSLMSPSHYGPPSFHNMFQPFFEMIHQAQQAMDVQLHSPAFQFPDVDFLREGEDDRTVCKEIRRNSTGCLKMKGQCEKCQEILSVDCSTNNPAQANLRQELNDSLQVAERLTEQYKELLQSFQSKMLNTSSLLEQLNDQFNWVSQLANLTQGEDKYYLRVSTVTTHSSDSEVPSRVTEVVVKLFDSDPITVVLPEEVSKDNPKFMDTVAEKALQEYRRKSRAE
modifications: C-terminal His6 tag
- effect on APMA-induced processing of MMP-2 (gel analysis) (APMA-treated reactions): processing of MMP-2 was not altered
- inhibition of MMP-2 activity (CLU 50 μg/ml (0.63 μM), APMA, RT 3 h): 72%
- potency on MMP-2 compared with SB-3CT (CLU 50 μg/ml or 0.63 μM versus SB-3CT 1 μM): more potent inhibitor of both MMP-9 and MMP-2 than SB-3CT
- MMP-2 inhibition at high detergent concentration (buffer with 0.04% Brij 35 or NP-40): inhibited by CLU in both buffers to the extent similar to that in the lower detergent concentration
